Patent EP1674575A2

What was measured:
[1] = target: LTβR (lymphotoxin β receptor) expressed by cells (human) (UniProt P36941); assay: cell-based or functional assay
[2] = target: mouse HVEM:Fc (mouse HVEM Met1 to Ser205 fused to the Fc region of human IgG1) (mouse; human) (UniProt Q80WM9); assay: ELISA, receptor:Fc capture, anti-FLAG detection
[3] = target: mouse LTβR:Fc (amino acid residues 1 to Met221 of the extracellular domain of mouse LTβR) (mouse) (UniProt P50284); assay: ELISA, receptor:Fc capture, anti-FLAG detection
[4] = target: HVEM:Fc (extracellular region of HVEM, 1 to K184, fused to the Fc region of human IgG1) (human) (UniProt Q92956); assay: SPR (BIAcore), receptor:Fc amine-coupled, LIGHT as analyte 100-500 nM
[5] = target: human LTβR:Fc (human) (UniProt P36941); assay: as above
[6] = target: HVEM:Fc (extracellular region of HVEM, 1 to K184, fused to the Fc region of human IgG1) (human) (UniProt Q92956); assay: SPR (BIAcore)
[7] = target: HVEM:Fc (extracellular region of HVEM, 1 to K184, fused to the Fc region of human IgG1) (human) (UniProt Q92956); assay: SPR (BIAcore), receptor:Fc amine-coupled, LIGHT mutant as analyte 100-500 nM

human LTβR:Fc (human), sequence (P36941 31-227 limits assumed): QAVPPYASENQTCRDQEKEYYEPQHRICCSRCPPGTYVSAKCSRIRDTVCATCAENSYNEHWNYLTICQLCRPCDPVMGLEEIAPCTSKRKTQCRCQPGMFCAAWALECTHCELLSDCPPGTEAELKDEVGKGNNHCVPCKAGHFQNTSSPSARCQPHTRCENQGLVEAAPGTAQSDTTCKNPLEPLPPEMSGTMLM
HVEM:Fc (extracellular region of HVEM, 1 to K184, fused to the Fc region of human IgG1) (human), sequence (Q92956 39-184 limits assumed): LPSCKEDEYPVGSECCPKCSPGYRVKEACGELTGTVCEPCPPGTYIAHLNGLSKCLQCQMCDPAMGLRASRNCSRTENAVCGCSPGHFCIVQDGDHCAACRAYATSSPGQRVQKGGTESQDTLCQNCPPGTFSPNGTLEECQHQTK
mouse HVEM:Fc (mouse HVEM Met1 to Ser205 fused to the Fc region of human IgG1) (mouse; human), sequence (Q80WM9 39-205): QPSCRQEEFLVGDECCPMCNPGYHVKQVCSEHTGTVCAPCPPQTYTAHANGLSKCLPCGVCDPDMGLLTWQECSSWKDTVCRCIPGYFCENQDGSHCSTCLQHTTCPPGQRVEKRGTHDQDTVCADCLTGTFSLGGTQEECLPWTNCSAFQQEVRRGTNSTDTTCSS
mouse LTβR:Fc (amino acid residues 1 to Met221 of the extracellular domain of mouse LTβR) (mouse), sequence (P50284 31-221 limits assumed): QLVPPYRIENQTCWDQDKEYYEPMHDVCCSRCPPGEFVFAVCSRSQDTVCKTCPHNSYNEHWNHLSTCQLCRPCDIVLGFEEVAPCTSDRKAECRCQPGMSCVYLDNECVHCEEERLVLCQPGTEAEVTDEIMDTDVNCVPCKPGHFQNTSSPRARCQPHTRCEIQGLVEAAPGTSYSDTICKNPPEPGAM

Row | Substance | concentration for complete inhibition of HCMV cytopathic effect [1] [pM] | dose for 50% cytotoxicity to HT29 cells (MTT, with IFNγ) [1] [pM] | fold induction of ICAM expression by NHDF cells (flow cytometry, 5 nM) [1] [fold] | growth inhibition of HT29 cells by LIGHT (0.25 nM), MTT after 72 h [1] [%] | fold lower affinity (against the human receptors) [2] [fold] | fold lower affinity (against the human receptors) [3] [fold] | Kd [4] [nM] | koff [4] [s⁻¹] | kon [4] [M⁻¹ s⁻¹] | Kd [5] [nM] | koff [5] [s⁻¹] | kon [5] [M⁻¹ s⁻¹] | fold lower affinity than LIGHT t66 [6] [fold] | fold induction of ICAM expression by NHDF cells (flow cytometry, 20 nM) [1] [fold] | Kd [7] [nM] | koff [7] [s⁻¹] | kon [7] [M⁻¹ s⁻¹]
1 | LIGHTt66-FLAG (recombinant soluble homotrimeric human LIGHT lacking the N-terminal 66 amino acids, N-terminal FLAG epitope) (ligand) | 100 | 10 to 100 | 4 | 50 | 10 | 10 | 3.9 | 4.8e-05 | 12000 | 4.5 | 0.00012 | 27000 |  |  |  |  | 
2 | LIGHTt66-FLAG mutant G119E (from UniProt O43557 67-240) (ligand) |  |  |  |  |  |  |  |  |  |  |  |  | 30 | < 1.5 | 114 | 0.002 | 18000
